Values belong to the substance of their own block, whether it stands above or below them.
Columns and labels:
Experiment in all cases: native gel or EMSA
[1] = molecular target: Apoptosis Inducing Factor 1 (AIFM1) (bovine (endogenous in bovine heart mitochondria))
[2] = molecular target: cytochrome c oxidase (COX), monomeric (bovine (endogenous in bovine heart mitochondria)) (UniProt P00429)
[3] = molecular target: complex III (CIII) (bovine (endogenous in bovine heart mitochondria))
[4] = molecular target: complex V (CV) (bovine (endogenous in bovine heart mitochondria))

Chain of UniProt P00429 (P00429 whole entry, looked up): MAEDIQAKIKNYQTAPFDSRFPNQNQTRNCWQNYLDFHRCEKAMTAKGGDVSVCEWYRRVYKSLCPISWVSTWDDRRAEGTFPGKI

stoichiometry N [1]: 2 | percent of monomeric COX engaged in the complex [2]: 10% | stoichiometry N (AIFM1 per COX monomer) [2]: 2
Substance: Apoptosis Inducing Factor 1 (AIFM1) (natural protein)

stoichiometry N [3]: 2
Substance: complex III (CIII)

stoichiometry N [4]: 2
Substance: complex V (CV)

From doi:10.1101/2021.03.31.437858
